These results are taken from patent US20150017195A1 (WASHINGTON UNIVERSITY, published 2015).

For assay [1], the target named is human coxsackie-adenovirus receptor (CAR) stably expressed on CHO-hCAR cells (human) (UniProt P78310). Kind of assay: cell-based or functional assay.
For assay [2] the target is unchanged.
For assay [3], the target named is T1, human coxsackie-adenovirus receptor (CAR) stably expressed on CHO-hCAR cells (human, UniProt P78310 20-365).
T1 sequence: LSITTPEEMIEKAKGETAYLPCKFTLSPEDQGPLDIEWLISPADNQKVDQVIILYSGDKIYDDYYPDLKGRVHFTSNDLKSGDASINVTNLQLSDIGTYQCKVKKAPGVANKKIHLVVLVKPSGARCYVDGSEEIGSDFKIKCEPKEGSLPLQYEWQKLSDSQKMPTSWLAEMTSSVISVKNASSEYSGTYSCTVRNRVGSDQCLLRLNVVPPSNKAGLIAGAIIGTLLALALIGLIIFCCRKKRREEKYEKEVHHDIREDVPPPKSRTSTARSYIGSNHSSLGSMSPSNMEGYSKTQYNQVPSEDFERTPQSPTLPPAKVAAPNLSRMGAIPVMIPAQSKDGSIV
Kind of assay: cell-based or functional assay.

The molecule “recombinant HAdV-5 fiber knob protein (from UniProt P11818 387-581)” showed an inhibition of Ad5Luc1 gene transfer to CHO-hCAR cells by knob protein at 50 µg/ml in assay [1] of over 96%. The molecule further came in with an IC50 (read off the curve); inhibition of luciferase gene transfer of Ad5Luc1 into CHO-hCAR cells in assay [2] of 1 µg/mL.

B1: Ad5Luc1 control vector containing the HAdV-5 wild type fiber (other)
chain: MKRARPSEDTFNPVYPYDTETGPPTVPFLTPPFVSPNGFQESPPGVLSLRLSEPLVTSNGMLALKMGNGLSLDEAGNLTSQNVTTVSPPLKKTKSNINLEISAPLTVTSEALTVAAAAPLMVAGNTLTMQSQAPLTVHDSKLSIATQGPLTVSEGKLALQTSGPLTTTDSSTLTITASPPLTTATGSLGIDLKEPIYTQNGKLGLKYGAPLHVTDDLNTLTVATGPGVTINNTSLQTKVTGALGFDSQGNMQLNVAGGLRIDSQNRRLILDVSYPFDAQNQLNLRLGQGPLFINSAHNLDINYNKGLYLFTASNNSKKLEVNLSTAKGLMFDATAIAINAGDGLEFGSPNAPNTNPLKTKIGHGLEFDSNKAMVPKLGTGLSFDSTGAITVGNKNNDKLTLWTTPAPSPNCRLNAEKDAKLTLVLTKCGSQILATVSVLAVKGSLAPISGTVQSAHLIIRFDENGVLLNNSFLDPEYWNFRNGDLTEGTAYTNAVGFMPNLSAYPKSHGKTAKSNIVSQVYLNGDKTKPVTLTITLNGTQETGDTTPSAYSMSFSWDWSGHNYINEIFATSSYTFSYIAQE
As to B1, in assay [3], the “luciferase activity in CHO-hCAR cells versus CHO cells (gene transfer assay)” value was found to be 80 fold.
